Measured values reported in the supplement of paper PMC10065799, “High-throughput profiling of sequence recognition by tyrosine kinases and SH2 domains using bacterial peptide display” (eLife, 2023).

Tests used:
c-Src SH2 = assay: SH2 binding enrichment of the phosphorylated peptide, bacterial display (enrichment ratio); higher = better substrate or ligand; peptides without Tyr show the background
SHP2-C SH2 = assay: as above
Grb2 SH2 = Grb2 SH2 (UniProt P62993); assay: as above
FGFR3 = FGFR3 (UniProt P22607); assay: phosphorylation enrichment, bacterial display (enrichment ratio); higher = better substrate or ligand; peptides without Tyr show the background
Fyn = Fyn (UniProt P06241); assay: as above
Fyn, sequence (P06241 whole entry, looked up): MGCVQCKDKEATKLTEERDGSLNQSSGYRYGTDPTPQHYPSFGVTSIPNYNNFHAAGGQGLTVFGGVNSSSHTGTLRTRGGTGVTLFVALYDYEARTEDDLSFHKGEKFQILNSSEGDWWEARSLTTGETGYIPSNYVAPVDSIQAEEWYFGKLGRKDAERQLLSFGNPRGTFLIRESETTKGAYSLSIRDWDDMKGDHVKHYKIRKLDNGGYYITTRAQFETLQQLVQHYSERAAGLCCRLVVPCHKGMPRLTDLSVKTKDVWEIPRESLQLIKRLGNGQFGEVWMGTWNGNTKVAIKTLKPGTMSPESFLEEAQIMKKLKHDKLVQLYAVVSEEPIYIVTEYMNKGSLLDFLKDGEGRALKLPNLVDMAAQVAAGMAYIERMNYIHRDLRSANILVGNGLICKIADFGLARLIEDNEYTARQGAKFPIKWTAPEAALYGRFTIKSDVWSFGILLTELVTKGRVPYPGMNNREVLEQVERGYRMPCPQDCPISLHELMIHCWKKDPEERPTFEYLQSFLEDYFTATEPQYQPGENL

FGFR1 = FGFR1 (UniProt P11362); assay: as above
FGFR1, sequence (P11362 whole entry, looked up): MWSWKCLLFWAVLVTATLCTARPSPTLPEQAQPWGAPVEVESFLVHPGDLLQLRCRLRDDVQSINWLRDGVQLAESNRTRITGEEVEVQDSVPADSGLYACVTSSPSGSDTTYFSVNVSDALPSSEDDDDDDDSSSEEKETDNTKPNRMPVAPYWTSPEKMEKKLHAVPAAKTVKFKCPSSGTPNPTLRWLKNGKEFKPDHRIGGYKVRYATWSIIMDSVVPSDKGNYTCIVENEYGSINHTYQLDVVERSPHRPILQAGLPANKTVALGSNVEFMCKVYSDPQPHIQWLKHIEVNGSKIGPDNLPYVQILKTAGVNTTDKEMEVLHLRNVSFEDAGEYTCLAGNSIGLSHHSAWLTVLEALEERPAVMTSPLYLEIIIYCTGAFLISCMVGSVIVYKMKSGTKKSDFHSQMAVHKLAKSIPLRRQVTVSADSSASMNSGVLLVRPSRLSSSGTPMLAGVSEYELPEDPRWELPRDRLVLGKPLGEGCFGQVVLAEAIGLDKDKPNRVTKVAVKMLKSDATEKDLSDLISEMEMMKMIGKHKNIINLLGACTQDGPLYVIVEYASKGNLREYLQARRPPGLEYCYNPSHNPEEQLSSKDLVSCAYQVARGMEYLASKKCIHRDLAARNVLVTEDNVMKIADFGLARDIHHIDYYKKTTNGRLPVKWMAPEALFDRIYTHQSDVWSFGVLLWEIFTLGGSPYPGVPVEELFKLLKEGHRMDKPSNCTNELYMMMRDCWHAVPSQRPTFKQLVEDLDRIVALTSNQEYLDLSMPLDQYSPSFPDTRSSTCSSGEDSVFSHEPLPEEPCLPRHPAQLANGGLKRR

EPHB1 = EPHB1 (UniProt P54762); assay: as above
c-Src = assay: as above
c-Abl (mouse) = assay: as above
MERTK = MERTK (UniProt Q12866); assay: as above
AncSZ = assay: as above
Fes = Fes (UniProt P07332); assay: as above
Fes, sequence (P07332 whole entry, looked up): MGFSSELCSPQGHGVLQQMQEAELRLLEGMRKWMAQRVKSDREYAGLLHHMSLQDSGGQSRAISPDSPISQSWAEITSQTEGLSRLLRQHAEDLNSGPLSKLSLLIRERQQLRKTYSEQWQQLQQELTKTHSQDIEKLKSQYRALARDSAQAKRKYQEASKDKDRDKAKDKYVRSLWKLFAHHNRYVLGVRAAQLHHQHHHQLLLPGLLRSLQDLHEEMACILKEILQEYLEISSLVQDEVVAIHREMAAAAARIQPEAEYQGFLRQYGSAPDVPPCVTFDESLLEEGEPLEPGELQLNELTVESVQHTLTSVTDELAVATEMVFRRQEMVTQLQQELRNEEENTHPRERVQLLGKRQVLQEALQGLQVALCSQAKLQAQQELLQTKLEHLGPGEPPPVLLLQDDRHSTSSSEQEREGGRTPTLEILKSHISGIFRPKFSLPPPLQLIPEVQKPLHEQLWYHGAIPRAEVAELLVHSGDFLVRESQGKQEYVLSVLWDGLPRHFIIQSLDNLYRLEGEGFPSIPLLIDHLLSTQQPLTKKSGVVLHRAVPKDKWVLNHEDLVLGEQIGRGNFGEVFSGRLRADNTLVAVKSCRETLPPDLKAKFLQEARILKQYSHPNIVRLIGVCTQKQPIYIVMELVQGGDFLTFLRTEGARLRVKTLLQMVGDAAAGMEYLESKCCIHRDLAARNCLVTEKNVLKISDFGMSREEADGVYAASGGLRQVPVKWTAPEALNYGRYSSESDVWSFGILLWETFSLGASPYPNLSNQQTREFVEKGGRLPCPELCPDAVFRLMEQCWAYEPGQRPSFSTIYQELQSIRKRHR

Hck = Hck (UniProt P08631); assay: as above
Hck, sequence (P08631 whole entry, looked up): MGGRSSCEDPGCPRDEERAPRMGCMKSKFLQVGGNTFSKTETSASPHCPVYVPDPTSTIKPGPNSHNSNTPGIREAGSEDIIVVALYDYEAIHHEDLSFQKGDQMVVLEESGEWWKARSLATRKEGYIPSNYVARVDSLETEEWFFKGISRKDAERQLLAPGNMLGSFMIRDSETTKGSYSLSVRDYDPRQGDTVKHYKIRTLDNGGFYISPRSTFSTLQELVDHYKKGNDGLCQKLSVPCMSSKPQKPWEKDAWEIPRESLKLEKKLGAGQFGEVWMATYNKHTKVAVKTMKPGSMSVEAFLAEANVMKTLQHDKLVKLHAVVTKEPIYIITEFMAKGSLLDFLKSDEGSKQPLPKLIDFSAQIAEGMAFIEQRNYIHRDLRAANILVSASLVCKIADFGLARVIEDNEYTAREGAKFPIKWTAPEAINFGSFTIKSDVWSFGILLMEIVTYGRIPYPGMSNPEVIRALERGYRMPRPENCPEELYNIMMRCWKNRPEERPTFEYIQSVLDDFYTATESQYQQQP

EPHB2 = EPHB2 (UniProt P29323); assay: as above
EPHB2, sequence (P29323 whole entry, looked up): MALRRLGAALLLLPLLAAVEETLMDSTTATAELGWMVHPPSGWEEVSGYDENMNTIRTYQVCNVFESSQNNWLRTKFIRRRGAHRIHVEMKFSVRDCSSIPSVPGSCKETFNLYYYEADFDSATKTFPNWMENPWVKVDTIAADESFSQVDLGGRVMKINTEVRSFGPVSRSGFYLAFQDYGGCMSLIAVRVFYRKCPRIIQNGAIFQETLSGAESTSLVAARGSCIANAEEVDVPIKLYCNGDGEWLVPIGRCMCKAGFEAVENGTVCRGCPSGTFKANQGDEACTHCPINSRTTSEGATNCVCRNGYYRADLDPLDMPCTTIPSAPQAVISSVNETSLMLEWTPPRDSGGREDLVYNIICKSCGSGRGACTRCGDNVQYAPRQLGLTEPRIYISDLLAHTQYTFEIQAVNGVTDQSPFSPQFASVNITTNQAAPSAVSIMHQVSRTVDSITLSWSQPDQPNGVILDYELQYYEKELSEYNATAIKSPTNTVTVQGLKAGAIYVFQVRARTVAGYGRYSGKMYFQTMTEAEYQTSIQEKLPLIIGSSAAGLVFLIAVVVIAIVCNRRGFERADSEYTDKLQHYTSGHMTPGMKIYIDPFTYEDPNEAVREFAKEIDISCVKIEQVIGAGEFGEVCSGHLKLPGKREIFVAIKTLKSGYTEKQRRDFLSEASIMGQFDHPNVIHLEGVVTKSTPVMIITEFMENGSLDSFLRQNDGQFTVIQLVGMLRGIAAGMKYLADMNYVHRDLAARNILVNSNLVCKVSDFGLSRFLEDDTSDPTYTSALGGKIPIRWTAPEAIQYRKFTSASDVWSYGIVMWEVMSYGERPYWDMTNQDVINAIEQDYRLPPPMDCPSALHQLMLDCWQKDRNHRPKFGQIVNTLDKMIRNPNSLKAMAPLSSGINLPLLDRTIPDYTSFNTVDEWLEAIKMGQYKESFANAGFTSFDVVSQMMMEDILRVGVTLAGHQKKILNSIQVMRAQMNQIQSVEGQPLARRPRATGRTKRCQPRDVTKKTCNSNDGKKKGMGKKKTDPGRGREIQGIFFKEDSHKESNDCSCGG

Fer (mouse) = assay: as above
Jak2 = Jak2 (UniProt O60674); assay: as above
Jak2, sequence (O60674 whole entry, looked up, the tested form may be a part): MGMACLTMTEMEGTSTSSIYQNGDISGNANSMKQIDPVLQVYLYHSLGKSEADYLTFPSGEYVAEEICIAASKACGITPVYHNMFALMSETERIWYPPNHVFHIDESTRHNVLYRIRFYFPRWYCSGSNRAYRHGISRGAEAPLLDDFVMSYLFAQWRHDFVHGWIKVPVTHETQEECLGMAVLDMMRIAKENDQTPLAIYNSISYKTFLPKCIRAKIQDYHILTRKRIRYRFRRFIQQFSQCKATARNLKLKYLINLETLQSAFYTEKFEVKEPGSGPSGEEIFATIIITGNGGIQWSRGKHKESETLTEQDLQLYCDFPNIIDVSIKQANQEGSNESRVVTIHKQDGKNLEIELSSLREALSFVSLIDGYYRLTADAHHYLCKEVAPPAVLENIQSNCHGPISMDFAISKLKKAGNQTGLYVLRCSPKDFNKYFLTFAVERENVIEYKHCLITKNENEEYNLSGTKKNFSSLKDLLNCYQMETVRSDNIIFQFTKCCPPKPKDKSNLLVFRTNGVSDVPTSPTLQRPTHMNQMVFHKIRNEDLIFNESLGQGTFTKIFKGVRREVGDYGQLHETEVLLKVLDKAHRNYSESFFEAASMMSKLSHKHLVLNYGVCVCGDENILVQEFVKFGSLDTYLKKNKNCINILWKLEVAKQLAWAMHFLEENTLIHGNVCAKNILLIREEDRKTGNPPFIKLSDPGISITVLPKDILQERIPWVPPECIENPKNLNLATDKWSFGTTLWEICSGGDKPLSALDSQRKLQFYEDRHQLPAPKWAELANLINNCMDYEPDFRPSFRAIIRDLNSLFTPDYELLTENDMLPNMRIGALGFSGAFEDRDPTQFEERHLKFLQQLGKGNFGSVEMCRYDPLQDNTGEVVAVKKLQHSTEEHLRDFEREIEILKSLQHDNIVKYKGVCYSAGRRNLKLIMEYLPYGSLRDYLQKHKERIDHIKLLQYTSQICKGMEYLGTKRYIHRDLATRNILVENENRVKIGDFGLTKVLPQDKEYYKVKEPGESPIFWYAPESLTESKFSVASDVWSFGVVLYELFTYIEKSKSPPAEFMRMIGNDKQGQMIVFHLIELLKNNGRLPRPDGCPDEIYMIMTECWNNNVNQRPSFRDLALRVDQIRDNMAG
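Wherever SH2 binding enrichment of the phosphorylated peptide, bacterial display is given: peptide library displayed on the E. coli surface as eCPX fusions, selected cells deep-sequenced, score is each peptide's frequency after selection divided by its frequency in the input.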
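Wherever phosphorylation enrichment, bacterial display is given: 11-residue human phosphosite peptides and single-mutation variants displayed on the E. coli surface, counted by deep sequencing, each peptide's frequency after selection divided by its frequency in the unselected input library; frequency after pTyr selection over input frequency; kinase dosed for 20-30% of maximal phosphorylation in three min.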

| Sequence | SH2 binding enrichment (c-Src SH2) | SH2 binding enrichment (SHP2-C SH2) | SH2 binding enrichment (Grb2 SH2) | phosphorylation enrichment (FGFR3) | phosphorylation enrichment (Fyn) | phosphorylation enrichment (FGFR1) | phosphorylation enrichment (EPHB1) | phosphorylation enrichment (c-Src) | phosphorylation enrichment (c-Abl (mouse)) | phosphorylation enrichment (MERTK) | phosphorylation enrichment (AncSZ) | phosphorylation enrichment (Fes) | phosphorylation enrichment (Hck) | phosphorylation enrichment (EPHB2) | phosphorylation enrichment (Fer (mouse)) | phosphorylation enrichment (Jak2) |
| --- | --- | --- | --- | --- | --- | --- | --- | --- | --- | --- | --- | --- | --- | --- | --- | --- |
| PLFSKYWPNHI [GREB1L_Y1560_R1558S_YF] | 0.459 | 0.736 | 0.917 | 0.724 | 0.805 | 0.823 | 1 | 1.38 | 1.47 | 1.13 | 2.32 | 1.33 | 0.801 | 0.925 | 0.907 | 0.933 |
| KKHIPYKEHKS [CSNK1G1_Y205_R206K] | 1.82 | 2.23 | 1.89 | 2.2 | 0.597 | 0.942 | 1.15 | 1.03 | 3.19 | 0.987 | 1.53 | 2.1 | 0.842 | 0.951 | 1.2 | 3.96 |
| CNRADYSKLAP [GNE_Y22] | 1.18 | 0.622 | 0.793 | 0.61 | 0.458 | 0.472 | 0.613 | 0.412 | 0.556 | 0.609 | 0.749 | 0.844 | 0.459 | 0.607 | 0.485 | 0.621 |
| ADAGMYGVLPW [PLP1_Y207_R205G] | 0.435 | 0.74 | 0.726 | 0.529 | 9.65 | 0.549 | 1.76 | 6.61 | 3.07 | 6.35 | 0.803 | 0.845 | 9.1 | 6.53 | 2.39 | 0.637 |
| REVVNYVQKRN [RMI1_Y450] | 0.632 | 0.787 | 1.1 | 0.521 | 0.541 | 0.36 | 0.622 | 0.582 | 0.975 | 0.869 | 0.931 | 1.08 | 0.696 | 0.595 | 0.554 | 0.598 |
| VSTAVYKRFAS [BEST1_Y148_P152A] | 0.49 | 0.681 | 0.644 | 0.48 | 0.449 | 0.507 | 0.693 | 0.555 | 0.716 | 0.489 | 0.715 | 0.77 | 0.511 | 0.647 | 0.398 | 0.725 |
| SYVVRYNQPRV [GRIN2D_Y736_M733V] | 1.31 | 1.09 | 1.05 | 0.588 | 0.433 | 0.452 | 0.478 | 0.405 | 0.717 | 0.375 | 0.843 | 0.891 | 0.475 | 0.478 | 0.419 | 0.725 |
| AFRHGYFDEEM [PLEC_Y2971_R2969H_YF] | 0.606 | 0.614 | 0.832 | 0.676 | 0.487 | 0.554 | 0.498 | 0.412 | 0.806 | 0.478 | 1.13 | 1.12 | 0.456 | 0.59 | 0.593 | 1.3 |
| RRSQSYIPTSG [PLEKHA2_Y185] | 0.529 | 0.85 | 0.941 | 0.455 | 0.707 | 0.615 | 0.372 | 0.682 | 0.497 | 0.59 | 0.663 | 0.709 | 0.473 | 0.729 | 0.354 | 0.649 |
| SHTPSYCDESL [RITA1_Y109] | 0.678 | 0.706 | 0.895 | 0.516 | 0.405 | 0.502 | 0.462 | 0.403 | 0.566 | 0.419 | 0.806 | 0.831 | 0.405 | 0.459 | 0.505 | 0.62 |
| TTGGFYSFGGG [KRT24_Y120_A115T_YF] | 0.418 | 0.618 | 0.654 | 0.446 | 4.22 | 0.46 | 0.766 | 1.67 | 0.585 | 8.96 | 0.623 | 0.847 | 1.57 | 0.442 | 1.55 | 0.604 |
| KSDVMYTDWKK [ORM1_Y175_V174M] | 0.47 | 0.626 | 0.771 | 0.682 | 0.485 | 0.416 | 0.488 | 0.616 | 0.689 | 0.562 | 0.738 | 0.842 | 2.03 | 0.454 | 0.463 | 0.764 |
| FTFDPYSEEEP [IL2RB_Y387_D391E_YF] | 0.654 | 0.971 | 1.04 | 0.811 | 0.59 | 0.602 | 0.874 | 0.907 | 0.733 | 0.469 | 1.22 | 1.49 | 0.584 | 0.576 | 0.549 | 0.917 |
| IHADIYRWFNI [MARS1_Y344] | 1.19 | 1.17 | 1.65 | 6.99 | 2.23 | 9.43 | 0.716 | 3.77 | 6.74 | 5 | 1.22 | 1.42 | 2.14 | 0.6 | 8.95 | 1.12 |
| RLVTRYIYNRE [HLA-DQB1_Y62_Y58L] | 0.39 | 0.906 | 0.836 | 0.739 | 0.673 | 0.86 | 0.443 | 0.532 | 0.447 | 0.507 | 0.697 | 0.822 | 0.424 | 0.481 | 0.408 | 0.493 |
| TGDFGYRTPGF [TNS2_Y668_A670T_YF] | 0.529 | 0.709 | 0.765 | 0.517 | 0.457 | 0.438 | 0.48 | 0.413 | 0.706 | 0.429 | 0.523 | 0.632 | 0.401 | 0.419 | 0.399 | 0.526 |
| GLCSFYETSKM [MAGED2_Y449_R446C_YF] | 0.797 | 0.689 | 0.895 | 0.931 | 0.652 | 0.568 | 0.71 | 0.83 | 0.82 | 0.706 | 1.4 | 1.45 | 0.794 | 0.903 | 1.95 | 1.34 |

| Sequence | SH2 binding enrichment (c-Src SH2) | SH2 binding enrichment (SHP2-C SH2) | SH2 binding enrichment (Grb2 SH2) | phosphorylation enrichment (FGFR3) | phosphorylation enrichment (Fyn) | phosphorylation enrichment (FGFR1) | phosphorylation enrichment (EPHB1) | phosphorylation enrichment (c-Src) | phosphorylation enrichment (c-Abl (mouse)) | phosphorylation enrichment (MERTK) | phosphorylation enrichment (AncSZ) | phosphorylation enrichment (Fes) | phosphorylation enrichment (Hck) | phosphorylation enrichment (EPHB2) | phosphorylation enrichment (Fer (mouse)) | phosphorylation enrichment (Jak2) |
| --- | --- | --- | --- | --- | --- | --- | --- | --- | --- | --- | --- | --- | --- | --- | --- | --- |
| ETKKQYNSFTF [TMED3_Y85_D86N_YF] | 0.411 | 0.636 | 0.65 | 0.454 | 0.432 | 0.366 | 0.442 | 0.399 | 0.561 | 0.396 | 0.64 | 0.711 | 0.417 | 0.475 | 0.513 | 0.719 |
| STEAIYWRFSK [SH3PXD2B_Y42_R43W_YF] | 0.434 | 0.495 | 0.606 | 1.13 | 3.69 | 0.913 | 1.05 | 2.98 | 7.78 | 1.32 | 1.2 | 1.51 | 2.51 | 0.74 | 0.564 | 1.29 |
| AAILGYCHGEA [XPC_Y669_R671H] | 0.549 | 0.701 | 0.855 | 0.733 | 0.535 | 0.523 | 0.581 | 0.373 | 0.7 | 0.827 | 0.975 | 1.03 | 0.53 | 0.75 | 0.474 | 0.725 |
| LNYNEYFRDLN [HPRT1_Y198_D194N] | 0.443 | 0.672 | 0.985 | 1.38 | 0.996 | 1.29 | 1.4 | 0.518 | 1.01 | 0.559 | 1.82 | 1.6 | 0.879 | 1.12 | 0.878 | 1.57 |
| QWRTKYETDTI [MYH7_Y1375_A1379T] | 0.485 | 0.735 | 0.769 | 0.757 | 0.489 | 0.473 | 0.616 | 0.56 | 0.798 | 0.414 | 0.819 | 1.49 | 0.624 | 0.797 | 0.5 | 1.56 |
| KLIMEYLPFGS [JAK2_Y931_YF] | 0.714 | 0.788 | 1 | 0.595 | 0.401 | 0.468 | 0.49 | 0.558 | 0.734 | 0.372 | 0.868 | 1.09 | 0.424 | 0.571 | 0.456 | 0.965 |
| DKPENYRRLDI [VHL_Y175_V170D] | 0.472 | 0.637 | 0.68 | 0.467 | 0.46 | 0.558 | 0.388 | 0.418 | 0.39 | 0.402 | 0.647 | 0.657 | 0.442 | 0.412 | 0.452 | 0.551 |
| TSSAIYMNLAS [GATAD2B_Y317] | 1.4 | 1.46 | 4.48 | 1.94 | 6.11 | 3 | 8.76 | 6.07 | 3.29 | 8.39 | 0.949 | 1.01 | 6.95 | 3.51 | 3.71 | 0.997 |
| TLNVRHESVQA [CEACAM7_Y236_Y236H] | 0.579 | 0.714 | 0.978 | 0.39 | 0.378 | 0.451 | 0.38 | 0.466 | 0.415 | 0.348 | 0.564 | 0.59 | 0.366 | 0.44 | 0.374 | 0.831 |
| GKLIFYDLRGE [KARS1_Y145] | 0.688 | 0.956 | 0.947 | 0.584 | 0.474 | 0.517 | 0.492 | 0.413 | 0.664 | 0.436 | 1.02 | 0.984 | 0.531 | 0.637 | 0.432 | 0.823 |
| PPAPRYHHLAV [LZTR1_Y119_S122L] | 1.98 | 1.36 | 1.45 | 0.745 | 0.444 | 0.377 | 0.606 | 0.552 | 0.664 | 0.556 | 0.868 | 0.964 | 0.71 | 0.514 | 0.491 | 1.19 |
| MRTMGYMPREM [CABP5_Y62_T65R] | 0.48 | 0.576 | 0.785 | 0.508 | 0.438 | 0.397 | 0.369 | 0.356 | 0.507 | 0.435 | 0.494 | 0.594 | 0.405 | 0.374 | 0.411 | 0.606 |
| GSRGKYSSGFR [ATM_Y332] | 0.833 | 0.912 | 1.15 | 0.453 | 0.38 | 0.657 | 0.318 | 0.649 | 0.547 | 0.559 | 0.512 | 0.603 | 0.338 | 0.36 | 0.793 | 0.62 |
| HQNGMYGLHQD [SGSH_Y89] | 0.603 | 0.962 | 0.97 | 0.516 | 0.568 | 0.673 | 0.346 | 0.647 | 0.726 | 0.678 | 0.643 | 0.886 | 0.564 | 0.591 | 0.656 | 0.726 |
| DTLASYLDKVR [KRT12_Y139_R135T] | 0.687 | 0.73 | 0.98 | 0.415 | 0.378 | 0.352 | 0.403 | 0.364 | 0.495 | 0.411 | 0.552 | 0.76 | 0.408 | 0.44 | 0.304 | 0.42 |
| FADIAYNYRHR [PAH_Y166_G171R] | 0.542 | 0.773 | 0.866 | 0.435 | 0.27 | 0.427 | 0.391 | 0.429 | 0.511 | 0.398 | 0.624 | 0.687 | 0.341 | 0.44 | 0.436 | 0.533 |
